B1: S3-009 (antibody, human IgG1, lambda, V domains shown)
VH: EVQLVQSGAEVKKPGASVKVSCKASGYNFTGYYMHWVRQAPGQGLEWMGWINPNSGGTNYAQKFQGRVTMTRDTSISTAYMELSRLRSDDTAVYYCATDSFDYWGQGTMVTVSS
VL: SYVLTQPPSVSEAPRQRVTISCSGSSSNIGNNAVSWYQQLPGKAPKTLIYYDDLLSSGVSDRFSGSRSGTSASLAISGLQSEDEADYYCAAWDDSLNGVVFGGGTKLTVLQ
notes: also called hN1S3-009; HN1S3-9
B2: S3-011 (antibody, human IgG1, lambda, V domains shown)
VH: B1 VH with E1Q, A9P, Q106R
VL: not shown
notes: also called hN1S3-011
B3: S3-094 (antibody, human IgG1, lambda, V domains shown)
VH: B1 VH with Q106R
VL: QSVLTQPPSASGTPGQRVTISCSGGSSNIGSNTVTWYQQLPGKAPKLLIYISDQRPSGVPDRFSGSKSGTSASLAIRGLQSEDEADYYCAAWDDSLNGAVFGTGTKVTVLQ
notes: also called hN1S3-094; HN1S3-94
B4: WC-613 (antibody, human IgG1, lambda, V domains shown)
VH: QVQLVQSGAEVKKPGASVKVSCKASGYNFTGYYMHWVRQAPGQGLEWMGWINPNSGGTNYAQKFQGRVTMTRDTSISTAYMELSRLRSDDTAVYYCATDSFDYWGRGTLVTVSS
VL: SYELTQPPSASGTPGQRVTISCSGSYSNIGSNYVYWYQQLPGTAPKLLIYTNNQRPSGVPDRFSGSKSGTSASLVISGLRSDDEGDYYCAAWDDSVSVLLFGGGTKVTVLQ
notes: also called N1wc613; hN1wc-613
B5: WC-75 (antibody, human IgG1, lambda, V domains shown)
VH: GVQLVQSGGGLVQPGGSLRLSCAASGFTFDDYAMHWVRQAPGKGLEWVSSISWHSRTIAYADSVKGRFSISRDNAKNSLYLQMNSLRPEDTAVYYCAKASYLSTSSSLDYWGRGTLVTVSS
VL: QSVLTQPGSVSGSPGQSITISCTGTSSDVGGYNYVSWYQQHPGKAPKLMIYEGSKRPSGVSNRFSGSKSGNTASLTISGLQAEDEADYYCSSYTTRSTRVFGGGTKLTVLQ
B6: WC-629 (antibody, human IgG1, lambda, V domains shown)
VH: EVQLVQSGAEVKKPGSSVKVSCKASGGTLSSYTVSWLRQAPGQGLEWMGRIIPILDRANYAQKFQGRVTITADKSTSTAYMELNSLRSDDTAVYYCARSIGAAGDGVWFDPWGQGTMVTVSS
VL: QAVLTQPSSVSGAPGQRVTISCTGSSSNIGAGYDVHWYQQLPGTAPKLLIFDNKNRPSGVPDRFSGSNSGTSASLAITGLQAEDEAEYYCQSYDNNLSGRVFGGGTKLTVLQ
B7: A673-C2-110 (antibody, human IgG1, lambda, V domains shown)
VH: QVQLVQSGTEVKKPGASVRVSCKPSADTFTSYYVHWVRQAPGQGLEWMGTINPTGTYTRYAQQFQGRVTVTRDTSTSSVYMELSSLRSEDSAVYYCARDVRPYTAMYSFDNWGRGTTVTVSS
VL: SYVLTQPPSVSVSPGQTATITCSGDALPKQYANWYQQKPGQAPVLMIYKDSDRPSGIPERFSGSSSGTKATLTISGVQAEDEADYYCQSADNSGTNYVFGTGTKLTVLG
B8: FL-SKNAS-C2-384 (antibody, human IgG1, lambda, V domains shown)
VH: EVQLVQSGAEVKKPGSSVKVSCKASGGTLSSSAISWVRQAPGEGLEWMGGIIPMFDSTNYAQKFQGRVTITADESTSTAFMELSSLRSDDTAVYYCGRDPYYDRLSGGGYMDVWGQGTLVTVSS
VL: SYVLTQPPSVSGALRQTATVTCTGNSSNVGNQGAAWLRQHQGRPPKLLSYRNNDRPSGVSQRFSASTSGNTASLTITGLQSEDEADYFCSAWDSSRSGWVFGGGTKLTVLG
B9: N1wc45 (scFv, V domains shown)
VH: EVQLVQSGAEVKKPGASVKVSCKASGYSFRSYGIVWVRQAPGQGLEWMGWISAYNGNTNYAQKLQGRVTMTTDTSTSTAYMELRSLRSDDTAVYYCVRGDRHYDILTGYSPVWFDPWGKGTTVTVSS
VL: SSELTQDPAVSVALGQTVRITCQGDSLRSYYASWYQQKPGQAPVLVIYGKNNRPSGIPDRFSGSSSGNTASLTITGAQAEDEADYYCNSRDSSGNHVVFGGGTKLTVL
notes: phage scFv
B10: N1wc621 (scFv, V domains shown)
VH: EVQLVQSGAEVKKPGASVKVSCKASGYTFTGYYIHWVRQAPGQGLEWMGWISPNSGVTNYAQRFQGRVTMSRDTSITTAYMELNRLGSDDTAVYYCAREGREDGVLFDYWGRGTLVTVSS
VL: QAVLTQPSSVSGAPGQTVTISCAGSSSNLGAGYDAHWYQHLPGAVPRLLIYNNSKRPSGVPDRFSASKSGSSASLAITGLQPEDEADYYCQTYDTRLSGSMLFGGGTKVTVL
notes: phage scFv
B11: N1wc535 (scFv, V domains shown)
VH: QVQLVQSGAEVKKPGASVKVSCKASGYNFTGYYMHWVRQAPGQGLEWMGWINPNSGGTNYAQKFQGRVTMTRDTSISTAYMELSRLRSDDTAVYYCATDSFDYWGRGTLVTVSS
VL: QSVLTQPPSASGTPGQRVTLSCSGSSSNIGSNTVNWYQQLPGTAPKVLIYSDNQRPSGVPDRFSGSKSGTSASLAISGLQSDDEAVYYCAGWDDSLNAYLFGTGTKVTVL
notes: phage scFv
B12: N1wc586 (scFv, V domains shown)
VH: QVQLVQSGPEVKKPGASVKVSCKAAGYTFPDFYMHWVRQAPGKGPEWVGWINSNSGSTRLAERLEGRVTLTRDTSISTAYMELTSLTSDDTAVYYCARGAYDYVWGTSRYVADAFDIWGQGTLVTVSP
VL: DIVMTQSPSTLSASVGDRVTITCRASQGISSWLAWYQQKPGRAPKVLIYKASTLESGVPSRFSGSGSGTDFTLTISSLQPEDFATYYCQQSYSTPWTFGQGTKLEIK
notes: phage scFv
B13: N1wc570 (scFv, V domains shown)
VH: QVQLVQSGPEVKKPGTSVKVSCKASGFTFTSSAVQWVRQARGQRLEWIGWIVVGSGNTNYAQKFQERVTITRDMSTSTAYMELSSLRSEDTAVYYCVADTVYWGRGTMVTVSS
VL: QSVLTQPPSASATPGQTVTISCSGSTSNIGNNNVNWYQQVPGTAPKLLMYSNNQRPSGVPDRFSGSRSGTSASLAITALQSEDEADYYCATWDDSLSAWVFGGGTKVTVL
notes: phage scFv
B14: N1wc39 (scFv, V domains shown)
VH: EVQLVQSGAEVKKPGASVKLSCKTSGHTFTNYAFHWLRQAPGQRPEWLGWINADNGNTKYSQSFQDRVTITRDISANTAYMEMSRLKSEDTAYYYCARDPWSGVLDHWGKGTLVTVSS
VL: DIQLTQSPSSVSASIGDTVTITCRASQNINKWLAWYQQKPGKAPYLLISTASNLQSGVPSRFSGTGSGTAFTLTISRVQPEDFANYYCQQAFSFPITFGQGTRLEIK
notes: phage scFv
B15: hN1wc-179 (antibody, human IgG1, lambda, V domains shown)
VH: B1 VH
VL: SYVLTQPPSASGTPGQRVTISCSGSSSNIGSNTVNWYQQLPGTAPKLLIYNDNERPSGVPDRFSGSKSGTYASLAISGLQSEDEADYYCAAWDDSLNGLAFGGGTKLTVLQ
B16: HN1S3-133 (antibody, human IgG1, lambda, V domains shown)
VH: B13 VH with R105Q, M108L
VL: QSVLTQPPSVSEAPRQRVTISCSGSSSNIGNNAVNWYQQLPGEAPKLLIYYDDLLPSGVSDRFSGSKSGSSASLAISGLQAEDEADYYCATWDDSLNAWVFGGGTKVTVLQ
B17: HN1S3-147 (antibody, human IgG1, lambda, V domains shown)
VH: B13 VH with R105K, M108L
VL: not shown

The text below walks through data of US20110286916A1 (published 2011).

Residue numbers refer to the chain shown, from its start.

The first assay deals with T1, human Notch3-Gal4 chimeric receptor on U2OS FlpIn TREx cells (human, UniProt Q9UM47 40-2321). The assay can be described thus: cell-based or functional assay.
In the case of B1, the “hN3, inhibition of Luc activity at [166 nM] Mab” value (“hN3, inhibition of Luc activity” below) was less than 20%.

Take B2: the “hN3, inhibition of Luc activity” value was less than 10%.

Take B3: the “hN3, inhibition of Luc activity” value was less than 10%.

As for B4, the “hN3, inhibition of Luc activity” value was less than 10%.

In the case of B5, the “hN3, inhibition of Luc activity” value was less than 10%.

Regarding B6, the “hN3, inhibition of Luc activity” value is less than 10%.

The target of a further assay is T1, human Notch3-Gal4 chimeric receptor on …. The experiment in a line: cell-based or functional assay. The source holds these as a separate data set.
Turning to B7, the “hN3, inhibition of Luc activity” value was less than 10%.

For B8, the “hN3, inhibition of Luc activity” value was less than 5%.

The target in a further assay is T2, human full-length Notch3 with C-terminal FLAG tag, stably expressed on 293 FlpIn (TREx) cells (human, UniProt Q9UM47 40-2321).
T2 construct: whole, on cells; made by the same strategy as the Notch1 line; also called 293-N3; hN3
The experiment in a line: FACS, phage scFv. (In flow cytometry, cells or beads pass a laser one at a time.)
With B9, the binding result is “binds”.

With B10, the binding result is given as “binds”.

In the case of B11, the binding result is reported as “binds”.

B12: the binding result was “binds”.

B13: the binding result is “binds”.

As for B14, the binding result is “binds”.

In another assay the target is T3, human full-length Notch1 with C-terminal FLAG tag, stably expressed on 293 FlpIn (TREx) cells (human, UniProt P46531 19-2555).
T3 construct: tetracycline/doxycycline-induced expression from pcDNA5/FRT/TO-HN1+FLAG; also called hN1; 293_N1
The assay can be described thus: FACS, phage scFv.
On to B9, for which the binding result is “binds”.

Consider B10, for which the binding result is “binds”.

In the case of B11, the binding result is reported as “binds”.

As to B12, the binding result was “binds”.

For the molecule B13, the binding result is listed as “binds”.

Take B14: the binding result was “binds”.

The next assay has as its target T4, Notch1 extracellular fragment (amino acid 19-526) Fc fusion protein, R&D Systems 3647-TK (human, UniProt P46531 19-526).
T4 construct: bought protein; also called Notch1/Fc; Notch1-ECD Fc fusion protein; not shown: Fc of the bought fusion protein
The experiment in a line: BIAcore SPR, Notch1/Fc on CM5, Mab analyte, 1:1 binding. How it is done: All experiments were performed at 25° C. at a flow rate of 40 μl/min. […] FC1 was used as the reference cell. Specific signals were the results of differences of signals obtained on FC2 versus FC1. […] The dissociation phase of the analyte was monitored over a period of time ranging 10-30 minutes. Running buffer was also injected under the same conditions as a reference.
Equilibrium dissociation constant (KD) was calculated by the ratio between dissociation (koff) and association (kon) rate constants.
Background: In SPR one partner is held on a chip, and binding of the other changes the refractive index at the surface.
With B1, binding was characterised by a dissociation constant (Kd) of 5.23 nM; the off-rate (koff) (in general, the rate constant with which the complex falls apart) worked out at 0.00268 s⁻¹; the kon (as a rule, the second-order rate constant of association) was determined as 513000 M⁻¹ s⁻¹.

Turning to B15, the affinity, expressed as Kd, was 7.36 nM; the dissociation rate constant (koff) is 0.00363 s⁻¹; the kon is 493000 M⁻¹ s⁻¹.

As for B3, binding was put at a Kd of 3.89 nM, the koff is 0.00163 s⁻¹ and the kon amounted to 420000 M⁻¹ s⁻¹.

As for B4, the Kd (commonly the equilibrium constant for the complex coming apart) worked out at 1.09 nM, the koff came out at 0.000258 s⁻¹ and the kon turned out to be 237000 M⁻¹ s⁻¹.

B16: the equilibrium dissociation constant (Kd) amounted to 0.649 nM, the koff stood at 0.0004 s⁻¹ and the on-rate constant (kon) turned out to be 616000 M⁻¹ s⁻¹.

In the case of B17, the Kd was found to be 0.269 nM, the koff worked out at 0.000285 s⁻¹ and the kon came to 1.06e+06 M⁻¹ s⁻¹.

A further assay addresses T3, human full-length Notch1 with …. The assay can be described thus: FACS, hN1 293 cells, MFI grade (++ 101-500). How it is done:
Notch 293 FlpIn (TREx) cells were treated with dox (2 ug/ml) for two days to induce Notch expression before collecting them for FACS surface expression analysis. The cells were harvested from tissue culture flasks using Trypsin for 15 min, centrifuged at 1200 rpm for 10 minutes and resuspended in 2 ml PBS with 2% fetal bovine serum (2% FBS/PBS). The cells were counted, adjusted to 10⁷ cells/ml and 0.1 ml of cells was incubated with 1 ug of each Mab for 40 minutes at 4° C. The cells were washed, resuspended in 0.1 ml 2% FBS/PBS and incubated with 1 ug R-PE-conjugated goat anti-human Ig (Jackson ImmunoResearch) for 30 minutes at 4° C. Cells were washed, resuspended in 0.3 ml PBS with 10% formaldehyde and analyzed on a FACSCalibur (Becton Dickinson, Mt View, Calif.).
B1 gave an MFI of 101 to 500 mfi.

In the case of B2, the MFI was 101 to 500 mfi.

For B3, the MFI fell in the range of 101 to 500 mfi.

Consider B4, for which the MFI was 101 to 500 mfi.
